This passage reports Kd results from article PMC10804666.

Experiment [1] deals with Biotinylated recombinant mouse serum albumin (Mus musculus) (UniProt P07724). Put plainly: flow cytometry on cells; yeast surface titration at pH 7.4: NbAlb1 displayed on yeast (2 x 10^5 cells per well), ten concentrations of soluble biotinylated SA from 30 pM to 1 μM, 1 h at 4°C, PBS pH 7.4 with 0.01% w/v casein, NeutrAvidin DyLight 650, MFI; three independent experiments.

Experiment [2] addresses Biotinylated human serum albumin (Homo sapiens) (UniProt P02768). Described as above.

“NbAlb1 displayed on the surface of yeast as NbAlb1-(G4S)3-HA-pStalk fusion protein (VHH)”: the Kd (in general, the concentration at which binding is half-saturated) stood at 0.0545 µM in experiment [1] and 0.0066 µM in experiment [2].
